This data set is described as follows: yeast display, Sf9 membrane polyspecificity reagent, FACS + sequencing; frameworks hold sequencing errors. An outline of the steps:
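Galactose induction of a Saccharomyces cerevisiae BJ5465 synthetic nanobody display library ran 36–48 hours. The cells were then stained for 1 hour at 4 °C with 10% biotinylated, detergent-solubilized Sf9 membrane reagent, pulled down on streptavidin microbeads and FACS-sorted into low and high (top ~1%) gates on expression and reagent-binding fluorescence. Labels for polyreactivity follow the gate of origin.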
Turning to “QVQLEESRGGLVQAGGSLRLSCAASGLTSRQYAMGWYSQAPGKERELVAAITLRDGSTYYADSVKGRFTISRDNAKNTDYLQMNSLKPEDTAVYYCARRYLGLYSHFDYWGQGTQVTVSS”, the “polyreactivity (PSR sort gate)” value was “high polyreactivity”.
The result for “QVQLVESGGGLVQAGGSLRLSCAASGITFFGYAMGWYRQAPGKERELVAAISYSGGSTYYADSVKGRFTISRDNAKNTVYLQMNSLKPEDTAVYYCNARQAGTRYKYGYYGRYYWGQGTQVTVSS” reads “high polyreactivity”; that for “QVQLVESGGGLVQAGGSLRLSCAASGSTLDFNAMGWYRQAPGKERELVATITYGVGKNYADSVKGRFTISRDNAKNTVYLQMNSLKPEDTAVYYCAANNWDYARYTYWYYSFLAYDYWGQGTQVTVSS”, “low polyreactivity”.
The result for “QVQLVESGGGLVQAGGSLRLSCAASGRIFDTYVMGWYRQAPGKERELVAAISRSGGSTYYADSVKGRFTISRDNAKNTVYLQMNSLKPEDTAVYYCNKLASWWSAYYNPYEYWGQGTQVTVSS” reads “high polyreactivity”; that for “QVQLVESGGRLVQAGGSLRLSCAASGSIFKYYVMGWYRQAPGKERELVAAISSGGGSTYYADSVKGRFTISRDNAKNSVYLQMNSLKPEDTAVYYCNKKYRSRWQGPFDYWGQATQVTVSS”, “high polyreactivity”; that for “QVQLVDSGVGLVQAGGRLSLSCAASGLIFDFYAMGGYRQAPGKERELVATISWSGGTTSYADSVKGLFTISRDNAKNTVYIQMNSLKPEDTAVYYCAADGFQYTLGNYYWGQGTQVTLSS”, “high polyreactivity”.
“QVQLVESGGGLFQAGGSLRISSAPSGRTYYRNAMGWYRQAPGIERELVAAISWSGGRTYYADSVKGRFTISRDNAKNTVYLQMNSLKPEDSAVYYCAALFIYRSYAALSRYDYWGQGTQVTVSS”: the “polyreactivity (PSR sort gate)” value was “high polyreactivity”.
As for “QDQLVESGGGLVQAGGSLRLSCAASGSIFRPNAMGWYRQAHGKERELVAAITYSTGSTYYADSVKGRFTISRDNAKNTVYLQMNSLKPEDTAVYYCAARFWRWLFPFDYLGQGTQVTVSS”, the “polyreactivity (PSR sort gate)” value was “high polyreactivity”.
The result for “QVQLVESGGGLVQAGGSLRLSCAASGFIFGRYTMGWYRQAPGKERELVAAISGSDVSTYYADSVKGRFTISRDNAKITVYLQMNRLKPEDTAVYYCAADAPWAYYEYDYWGQGTQVTVSS” reads “low polyreactivity”; that for “QVQLVESGGGLVQAGGSLRLSCAASGSILNLNAMGWYRQAPGKERELVAAIRGGGRTNYADSVKGRFTISRDNAKNTVYLQMNSLKPEDTAVYYCAARITRPLTGYDYWGQGTQVTVSS”, “high polyreactivity”; that for “QVQLVESGGGLVQAGGSLRLSCAASGFTFHNNVMGWYRQAPGKERELVATISKSGGSTYYADYVKGRFTISRDNAKNTVYLQMKSLKPEDTAVYYCARRYRDYGRYGYWGQGTQVTVSS”, “high polyreactivity”.
The result for “QVQLVESGGGLVQAGGSLRLSCAASGITFPPYAMGWYRQAPGKERELVAAISWSGTSTYYADSVKGRFTISRDNAKNPVYLQMNSLKPEDTAVYYCAAVPRHPYHDKYDYWGQGTQVTVSS” reads “high polyreactivity”; that for “QVQLVESGGGLVQAGGSLRLSCAASGSTFYSNTMGWYRQAPGKERELVAAITRSGGSTYYADSVKGRFTISRDNAKNTVYLQMNSLKPEETAVYYCNTGYKTRALYWPYDYWGQGTLVTVSS”, “high polyreactivity”.
Take “QVQLVVSGVGLVQAGGSLRLSCAASGRIFSYYAMGWYRQAPGKEREFVATNSGSGGSTYYADSVKGRFTISRDNAKNTVYLEMNSLKPEDTAVYYCKARSYSYWSNWRNAGSYDYWGQGTQVTVSS”: the “polyreactivity (PSR sort gate)” value was “high polyreactivity”.
The result for “QVQLVESGGGLVQAGGSLRLSCAASGLTFRYYAMGWYRQAPGKERELVAAITRRGSTYYADSVKGRFTISRDNAKNTVYLQMISLKPEDTAVYYCATVTGFHSSPLRDLDYWGQGTQVTVSS” reads “high polyreactivity”.
The result for “QVQLVESGGGLVQAGGSLRLSCAASGSTFGLYAMGWYRQAPGKERELVADITWSGGSTYYADSVKGRFTISRDNAKNTVYLQMNSMKPEDTAVYYCAARYAWVYYDFDYCGQGTQVTVSS” reads “low polyreactivity”; that for “QVQLVESGGGLVQAGGSLRLSCAASGFTFRNYAMGWYRQAPGKEREFVAAISFSGGRTYYADSVKGRFTISRDNAKITVYLQMNSLKPEDTAVYFCAKKSYSKYEYWGQGTQVTVSS”, “low polyreactivity”.
The result for “QVQLEESGGGLVQAGGCLRLSCAASGSIFEWYAMGWYRQAPGKERELVADISSVGSTYYADSVKGRFTISRDNAKNTVYLQMNSLKPEDTAVYYCNTSYIIWYDSWGQGTQVTVSS” reads “low polyreactivity”; that for “QVQLVESGGGLVQAGGSLRLSCAACGRTFGWYAMGWYRQAPGTERELVATISSRGGATYYADSVKGRFTISRDNAKNTVYFQMNSLKPEDTAVYYCAAYSRTFEGHRGGYWGQGTQVTVSS”, “high polyreactivity”; that for “QVQLVESGGGLVQAGGSLRLSCAASGSIFNRYAMGWYRKAPGKERELVAAMSSTGSTYYADSVKGRFTISRDNAKNTVYLQMNSLKPEDTAVYYCNADATPDWLRVDTYEYWGQGTQVTVSS”, “low polyreactivity”.
As for “QVQLVESGGGLVQAGGSLRLSCAASGRTFYYYAMGWYRQAPGKERELVAAITSNGGSTYYADSVKGRFTISRDNAKNTVYLPMNSLKPEDTAVYYCAADTYWYLSPYDYWGQGTQVTVSS”, the “polyreactivity (PSR sort gate)” value is “low polyreactivity”.
“QVQLVESGGGLVQAGGSLRLSCAASGFTFYRYTMGWNRQAPGKERELVASITRRGGSTYYADSVKGRFTISRDNAKNTVYFQMNSLKPEDTAVYYCNAATPVWQSGTYEYWGQGTQVTVSS”: the “polyreactivity (PSR sort gate)” value is listed as “high polyreactivity”.
For the sequence “QVQLVESGGGLDQAGGSLRLTCAASGNTSEYYAMGWSRQAPGKERQLVAAIRSDVRTYYADSVKGRFTISRDNAKNTVYLQMNSLKPEDTAVYYCNADKSAWDYYLQTFNYWGQGTQVTVSS”, the “polyreactivity (PSR sort gate)” value is “high polyreactivity”.
The result for “QVQLVESGGGLVQAGGSLRLSCPASGSIFPYYAMGCYRQAPGKERELVAAISSGDITDYADSVKGRFTISRDNAKNTVYLQMNSLKPEDTAVYYCAAATLSLYWPYLFRGSDYDYWGQGSQVTVSS” reads “low polyreactivity”.
The result for “QVQLVESGGGLVQAGGSLRLSCAASGLTFKVYDMGGYRQAPGKERELVAAIWSDGDTYYADSVKGRFTISRDNAKNTVYLQMNSLKPEDTAVYYCAADPVWTVHFVFGNKYDYWGQGTQVTVSS” reads “low polyreactivity”; that for “QVQLVESGGGLVQAGGSLRLSCAASGITFRNYAMGWYRQAPGKERELVADITTGGSTYADSVKGRFTISRDNAKNTVYLQMNSLKPEDTAVYDCAADRDFRTPRLYYWGQGTQVTVSS”, “low polyreactivity”.
The result for “QVQLVESGGGLVQAGGILRLSCAASGFIFQFNAMGWYRQAPGKEMEMDASISVSGGSTYYADSVKGRFTISRDNAKNTVYLQMNSLKPEDTAVYYCAATQRRYTYGHDYWGQGTQVTVSS” reads “low polyreactivity”; that for “QVQLVESGGGLVQAGGSLRLSCAASGSIFWPNTMGWYRQAPGKERELVAGISFGGGSTYYADSVKGRFTISRDNAKNTVYLQMNSLKPEDTEVYYCNAPGPVISRRTDSYWYGWYDYWGQGTQVTVSS”, “low polyreactivity”.
Consider “QVQLVESGGGLVQGGGSLRLSFAASGSIFWRNAMGWYRQAPGKERELVAAITSGGSTYYADSVKGRFTISRDNAKNTVYLQMNSLKPEDTAVYYCAAGGRWARWLFPSRYDYWGQGTQVTVSS”, for which the “polyreactivity (PSR sort gate)” value is given as “low polyreactivity”.
The result for “QVQLVESGGGLVQAGGSLRLSCAASGSIFLVNAKGCYRQAPGKARELVAAITYGGDSTYYADSVKGRFTISRDNAKNTVYLQMNSLKPEDTAVYYCAADAWVGWHDEYDYWGQGTQVTVSS” reads “low polyreactivity”; that for “QVQLVESGGGLVQAGGSLRLSCAASGRIFNGNAMGWYRQAPGKERELVAAISYSGGATYYADSVKGRFTISRDNAKNTVYLQMNSLKPEDTAVYYCAAAAWDPKGSRYDYWGQGTQVTVSS”, “low polyreactivity”; that for “QVQLVESGGGIVQAGGRLRLSCAASGFTCARNVMGWYRQAPGKERELVAAITTSGGSTYYADSVKGRFTISRDNAKNTVSLQMNSLKPEDTAGYYCARRVYGYYIPYNYWGQGTQVTVSS”, “high polyreactivity”.
The result for “QVQLVESGGGLVQAGGSLRLSCAASGRIFWDYAMGWYRQAPGKERELVAVITFSGDSTYYADSVKGRFTISRDYAKNTVYLQMNSLKPEDTAVYYCAAARAIRQFWYVATFEYWGQGTQVTVSS” reads “low polyreactivity”; that for “QVQLVESGGGLVQAGGSLRLSCAATGSIFSSNAMGWYRQAPGKERELVAAIDYSGGRTYYADSVKGRFTISRDYEKNTVYLQMNSLKPEDTAVYYCAKLIPVHSRYDFWGQGTQVTVSS”, “low polyreactivity”.
In the case of “QVQLVESGGGLVQAGGSLRLSCAASGSILWLYVMGWYRQAPGKERELVATITSSGGSTYYADSVKGRFTISRDNAKNTVYLQMNSLKPEDTAVYYCAAQTYYSYDYWGQGTQVTVSS”, the “polyreactivity (PSR sort gate)” value is reported as “low polyreactivity”.
In the case of “QVQLVESAGGLVQAGGSLRLSCAASGRTLTGNALGWYRQAPGKESELVAAITARGGSTKYADSVKGRFTISRDNAKNTVYFLMNSLKPEDTAVFYCAAGCWYYLHMDYWGQGTQVTVSS”, the “polyreactivity (PSR sort gate)” value is reported as “high polyreactivity”.
In the case of “QVHLVESGGGLVQAGGSLRLSCAASGSIFGRYAMGWYRQAPGKEREFVAAISRGATNTYYADSVKGRFTISRDNAKNTVYLQMNSLKPEDTAVYYCARTQRYDYGYDYWGQGTQVTVSS”, the “polyreactivity (PSR sort gate)” value was “low polyreactivity”.
The result for “QVQLVETGGGLDQAGGSLRLSCAASGRTSRYAMGWYRQAPGKEMELVAAISRNGRTTSYADSVKGRFTISRDNAKNTVYLQKNSLKPEDTAVDYCNAYSAFVPPTRGYYWGQGTQVTVTS” reads “high polyreactivity”; that for “QVQLVESGGGLVQAGGSLRLSCADSGSIFYTYAMGWYRQAPGKEREFVAAITQTGGTTYNADSVKGRFTISRDNAKNTVYFQMNSLKQEDTAVYYCAARYRAYKLYGRHYYWGQGTQVTVSS”, “high polyreactivity”; that for “QVQLVESGGGLVQAGGSLRLSCGASGSNFWPNTMGWYRPAPGKERELVAGISFGGGSTYFADSVKGRFTISRDNAKNTVYLEMNRQKPEDTAVYYCNADDPGYAGPWYWVKYDYWGKGTQVTVSS”, “low polyreactivity”.

The values are drawn from the nanobody polyreactivity screen of Harvey et al. (2022).
